The text below walks through data of patent publication EP4039268A1 (IMBA-Institut für Molekulare Biotechnologie GmbH, dated 2022).

The chains are these.
B1: Dgcr2 CRD-mouse IgG2a-Fc fusion protein (Fc fusion)
chain: CPSGWHHYEGTASCYRVYLSGENYWDAAQTCQRVNGSLATFSTDQELRFVLAQEWDQPERSFGWKDQRKLWVGYQYVITGRNHSLEGRWEVAFKGSPEVFLPPDPIFASAMSENDNVFCAQLQCFHFGGGSGGGSGGGS
B2: Clec4e CRD-mouse IgG2a-Fc fusion protein (Fc fusion)
chain: YQSSCYFFSTTTLTWSSSLKNCSDMGAHLVVIDTQEEQEFLFRTKPKRKEFYIGLTDQVVEGQWQWVDDTPFTESLSFWDAGEPNNIVLVEDCATIRDSSNSRKNWNDIPCFYSMPWICEGGGSGGGSGGGS
B3: Clec3a CRD-mouse IgG2a-Fc fusion protein (Fc fusion)
chain: VHKKCYLASEGLKHYHEANEDCISKGGTLVVPRNSDEINALRDYGKRSLPGVNDFWLGINDMVTEGKFLDVHGFAVSFLNWDRAQPSGGKRENCVLFSQSAQGKWSDEACRSSKRYICEGGGSGGGSGGGS
B4: Atrn CRD-mouse IgG2a-Fc fusion protein (Fc fusion)
chain: VGNSCLKITTAKENYDNAKLSCRNHNAFLASLTSQKKVEFVLKQLRLMQSSQSMSKLTLTPWVGLRKINVSYWCWEDMSPFTNSLLQWMPSEPSDAGFCGILSEPSTRGLKAATCINPLNGSVCEGGGSGGGSGGGS
B5: Colec10 CRD-mouse IgG2a-Fc fusion protein (Fc fusion)
chain: TEEKFYYIVQEEKNYRESLTHCRIRGGMLAMPKDEVVNTLIADYVAKSGFFRVFIGVNDLEREGQYVFTDNTPLQNYSNWKEEEPSDPSGHEDCVEMLSSGRWNDTECHLTMYFVCEGGGSGGGSGGGS
B6: Clec9a CRD-mouse IgG2a-Fc fusion protein (Fc fusion)
chain: NGKSCYYVFERWEMWNISKKSCLKEGASLFQIDSKEEMEFISSIGKLKGGNKYWVGVFQDGISGSWFWEDGSSPLSDLLPAERQRSAGQICGYLKDSTLISDKCDSWKYFICEGGGSGGGSGGGS
B7: Acan CRD-mouse IgG2a-Fc fusion protein (Fc fusion)
chain: not shown
B8: Olr1 CRD-mouse IgG2a-Fc fusion protein (Fc fusion)
chain: HKENCYLFHGPFSWEKNRQTCQSLGGQLLQINGADDLTFILQAISHTTSPFWIGLHRKKPGQPWLWENGTPLNFQFFKTRGVSLQLYSSGNCAYLQDGAVFAENCILIAFSICQGGGSGGGSGGGS
B9: Lgals4_1 CRD-mouse IgG2a-Fc fusion protein (Fc fusion)
chain: YKRPIPGGLSVGMSVYIQGMAKENMRRFHVNFAVGQDDGADVAFHFNPRFDGWDKVVFNTMQSGQWGKEEKKKSMPFQKGKHFELVFMVMPEHYKVVVNGNSFYEYGHRLPVQMVTHLQVDGDLELQSINFLGGGSGGGSGGGS
B10: Colec11 CRD-mouse IgG2a-Fc fusion protein (Fc fusion)
chain: TESKIYLLVKEEKRYADAQLSCQARGGTLSMPKDEAANGLMASYLAQAGLARVFIGINDLEKEGAFVYSDRSPMQTFNKWRSGEPNNAYDEEDCVEMVASGGWNDVACHITMYFMCEGGGSGGGSGGGS
B11: Clec3b CRD-mouse IgG2a-Fc fusion protein (Fc fusion)
chain: VNLKCLLAFTQPKTFHEASEDCISQGGTLGTPQSELENEALFEYARHSVGNDANIWLGLNDMAAEGAWVDMTGGLLAYKNWETEITTQPDGGKAENCAALSGAANGKWFDKRCRDQLPYICQGGGSGGGSGGGS
B12: Asgr1 CRD-mouse IgG2a-Fc fusion protein (Fc fusion)
chain: YEGSCYWFSSSVRPWTEADKYCQLENAHLVVVTSRDEQNFLQRHMGPLNTWIGLTDQNGPWKWVDGTDYETGFQNWRPEQPDNWYGHGLGGGEDCAHFTTDGRWNDDVCRRPYRWVCEGGGSGGGSGGGS
B13: Clec2l CRD-mouse IgG2a-Fc fusion protein (Fc fusion)
chain: YGRKCYYFSEEPRDWNTGRQYCHTHEAALAVIQSQKELEFMFKFTRREPWIGLRRVGDDFHWVNGDPFDPDTFTISGMGECVFVEPTRLVSTECLTTRPWVCSGGGSGGGSGGGS
B14: Clec2d CRD-mouse IgG2a-Fc fusion protein (Fc fusion)
chain: VENKCFYFSEYPSNWTFAQAFCMAQEAQLARFDNQDELNFLMRYKANFDSWIGLHRESSEHPWKWTDNTEYNNTIPIRGEERFAYLNNNGISSTRIYSLRMWICSKLNSYSLHCQTGGGSGGGSGGGS
B15: Clec18a CRD-mouse IgG2a-Fc fusion protein (Fc fusion)
chain: IDGDCFMVSPEADTYYGAKMKCQGKGGVLAQIESQKVQDILAFYLGRLETTNEVTDSDFETKNFWIGLTYKAAKDSFRWTTGEHQSFTSFAFGQPDNQGFGNCVEMQASAAFNWNDQRCKTRNRYICQGGGSGGGSGGGS
B16: Siglec1 CRD-mouse IgG2a-Fc fusion protein (Fc fusion)
chain: TWGVSSPKNVQGLSGSCLLIPCIFSYPADVPVSNGITAIWYYDYSGKRQVVIHSGDPKLVDKRFRGRAELMGNMDHKVCNLLLKDLKPEDSGTYNFRFEISDSNRWLDVKGTTVTVTGGGSGGGSGGGS
B17: Chodl CRD-mouse IgG2a-Fc fusion protein (Fc fusion)
chain: VKHPCYKMAYFHELSSRVSFQEARLACESEGGVLLSLENEAEQKLIESMLQNLTKPGTGISDGDFWIGLLRSGDGQTSGACPDLYQWSDGSSSQFRNWYTDEPSCGSEKCVVMYHQPTANPGLGGPYLYQWNDDRCNMKHNYICKGGGSGGGSGGGS
B18: Cd302 CRD-mouse IgG2a-Fc fusion protein (Fc fusion)
chain: FQGSCYAFLQVTINVENIEDVRKQCTDHGADMVSIHNEEENAFILDTLQKRWKGPDDLLLGMFYDTDDATFKWYDHSNMTFDKWADQDGEDLVDTCGFLYTKTGEWRKGDCEISSVEGTLGGGSGGGSGGGS
B19: Clec1a CRD-mouse IgG2a-Fc fusion protein (Fc fusion)
chain: YGDKCYQFYKESKNWQSCEYFCLADNATMLKISTQEELDFAMPQSYSEFFYSYWTGLSRNGSGKAWLWTDGTPYSFELFEIIIDPTNLRNRDCMTIFNGKAYSKDCKELRRCACEGGGSGGGSGGGS
B20: Cd69 CRD-mouse IgG2a-Fc fusion protein (Fc fusion)
chain: YKRTCYFFSTTTKSWALAQRSCSEDAATLAVIDSEKDMTFLKRYSGELEHWIGLKNEANQTWKWANGKEFNSWFNLTGSGRCVSVNHKNVTAVDCEANFHWVCSGGGSGGGSGGGS
B21: Sftpa1 CRD-mouse IgG2a-Fc fusion protein (Fc fusion)
chain: not shown
B22: Siglec12 CRD-mouse IgG2a-Fc fusion protein (Fc fusion)
chain: PQEVFTLNVERKVVVQEGLCVLVPCNFSYLKKRLTDWTDSDPVHGFWYREGTDRRKDSIVATNNPIRKAVKETRNRFFLLGDPWRNDCSLNIREIRKKDAGLYFFRLERGKTKYNYMWDKMGGGSGGGSGGGS

In one assay the target is T1, human recombinant soluble ACE2 (human, UniProt Q9BYF1 18-740).
T1 construct: also called hrsACE2
Nature of the assay: ELISA. A general note: ELISA stands for enzyme-linked immunosorbent assay.
For the molecule B1, the binding result is listed as “no binding (tested: 10 µg/ml)”.
On the same count and under the same terms, to B2 belongs “no binding (tested: 10 µg/ml)”.
Same read-out and setting: the result for B3 reads “no binding (tested: 10 µg/ml)”.
On the same count and under the same terms, the result for B4 reads “no binding (tested: 10 µg/ml)”.
For B5, the binding result is given as “no binding (tested: 10 µg/ml)”.
Regarding B6, the binding result was “no binding (tested: 10 µg/ml)”.
As for B7, the binding result is listed as “no binding (tested: 10 µg/ml)”.
For B8, the binding result is listed as “no binding (tested: 10 µg/ml)”.
The same measure, in the same setting: to B9 belongs “no binding (tested: 10 µg/ml)”; to B10, “no binding (tested: 10 µg/ml)”; to B11, “no binding (tested: 10 µg/ml)”.
Still for that read-out and setting: to B12 belongs “no binding (tested: 10 µg/ml)”; to B13, “no binding (tested: 10 µg/ml)”.

Another assay has as its target T1, human recombinant soluble ACE2. Nature of the assay: ELISA screen.
For the molecule B14, the “Mean normalized OD” value is -0.506 OD.
For the molecule B1, the “Mean normalized OD” value amounted to 0.012 OD.
Still for that read-out and setting: to B15 belongs -0.013 OD.
Turning to B16, the “Mean normalized OD” value is -0.002 OD.
As to B2, the “Mean normalized OD” value came to 0.222 OD.
As to B3, the “Mean normalized OD” value turned out to be 0.045 OD.
Still for that read-out and setting: the result for B4 reads 0.002 OD; that for B17, -0.001 OD; that for B18, -0.002 OD.
The same measure, in the same setting: the result for B5 reads 0.185 OD.
As for B6, the “Mean normalized OD” value was found to be 0.222 OD.
On the same count and under the same terms, the result for B7 reads 0.081 OD; that for B19, -0.006 OD; that for B8, 0.116 OD.
Take B9: the “Mean normalized OD” value worked out at 0.2 OD.
Still for that read-out and setting: the result for B20 reads -0.022 OD; that for B10, 0.153 OD; that for B11, 0.001 OD.
The same measure, in the same setting: the result for B21 reads -0.092 OD; that for B22, -0.105 OD; that for B12, 0.004 OD.
With B13, the “Mean normalized OD” value is 0 OD.

The target in another assay is T2, full-length trimeric SARS-CoV-2 Spike protein (Spike-H6) (SARS-CoV-2, N-glycosylated (22 N-glycosylation sites)).
T2 construct: also called trimeric Spike; full-length Spike-H6
Nature of the assay: ELISA screen.
For B14, the “Mean normalized OD” value was -0.106 OD.
Still for that read-out and setting: the result for B1 reads 0.005 OD.
In the case of B15, the “Mean normalized OD” value is 0.022 OD.
On to B16, for which the “Mean normalized OD” value was 0 OD.
Take B2: the “Mean normalized OD” value was found to be 0.037 OD.
The same measure, in the same setting: the result for B3 reads 0.098 OD; that for B4, 0.002 OD; that for B17, 0.002 OD.
The same measure, in the same setting: to B18 belongs -0.002 OD; to B5, 0.036 OD; to B6, 0.029 OD.
On the same count and under the same terms, the result for B7 reads 0.023 OD; that for B19, -0.005 OD; that for B8, 0.083 OD.
As for B9, the “Mean normalized OD” value stood at 0.152 OD.
The same measure, in the same setting: the result for B20 reads 0.001 OD; that for B10, 0.043 OD.
Consider B11, for which the “Mean normalized OD” value is 0.001 OD.
Still for that read-out and setting: the result for B21 reads 0.005 OD; that for B22, 0.046 OD.
With B12, the “Mean normalized OD” value is 0.121 OD.
On the same count and under the same terms, to B13 belongs -0.001 OD.

The target of another assay is T3, monomeric SARS-CoV-2 receptor binding domain (RBD-H6) (SARS-CoV-2, UniProt P0DTC2 319-541).
T3 construct: Made in HEK293-6E cells; also called RBD Spike; monomeric RBD
Nature of the assay: ELISA screen.
Regarding B14, the “Mean normalized OD” value was found to be 0.024 OD.
Still for that read-out and setting: the result for B1 reads 0.003 OD; that for B15, 0 OD.
In the case of B16, the “Mean normalized OD” value is 0 OD.
On the same count and under the same terms, to B2 belongs 0.022 OD.
Still for that read-out and setting: to B3 belongs 0.039 OD; to B4, 0.001 OD.
On to B17, for which the “Mean normalized OD” value is 0.001 OD.
Same read-out and setting: to B18 belongs 0.001 OD; to B5, 0.008 OD.
Same read-out and setting: the result for B6 reads 0.062 OD; that for B7, 0.035 OD.
As to B19, the “Mean normalized OD” value is 0.01 OD.
In the case of B20, the “Mean normalized OD” value was 0.001 OD.
Consider B10, for which the “Mean normalized OD” value stood at 0.013 OD.
Consider B11, for which the “Mean normalized OD” value turned out to be 0 OD.
Same read-out and setting: the result for B21 reads 0.002 OD; that for B22, -0.021 OD; that for B13, 0 OD.
